Reference: patent publication US20160040149A1, “Compositions Having Dicamba Decarboxylase Activity and Methods of Use” (priority 2013, published 2016)

Columns and labels:
[1] = Saturation mutagenesis of SEQ ID NO:109: dicamba decarboxylation activity of point mutants (CO2 released), fold of backbone (Tables 7, 8, Megatable 1); settings: decarboxylation activity (CO2 released) of point mutant vs unmutated backbone protein; backbone SEQ ID NO: 109
[2] = GC/MS detection of decarboxylation product 2,5-DCA (toluene trapping or head space); type: biochemical; settings: purified protein, dicamba substrate
Description: Alternatively, dicamba decarboxylase activity can be monitored by measuring decarboxylation products other than CO2 using product detection methods. The decarboxylation product of dicamba, 2,5-dichloro anisole or 2,5-DCA (FIG. 1C), is a volatile compound with a flash point of 21° C. To capture this volatile compound for detection, 140 ul of toluene solution is added on top of 1 ml reaction mixture to form a trapping layer in a 1.5 ml eppendorf tube. […] The reaction is kept still at room temperature overnight before being vortex mixed and centrifuged at 14,000 rpm for 15 minutes. The top toluene phase is carefully removed using a micropipette and transferred into a 12×32 mm polypropylene vial (Vial 11 mm) from MicroLiter Analytical Supplies, Inc. (catalog number 11-5300-100). The vial is sealed with Crimp seal (11 mm with FEP/Nat Rubber) from MicroLiter Analytical Supplies, Inc. (catalog number 11-0020A) using a E-Z Crimper™ 11 mm from Wheaton Inc. lul of the toluene mixture is taken from the sealed vials and injected in splitless mode into a GC/MS system for sample analysis (Agilent GC/MS system with a 6890A GC, a 5973N MSD and a CTC CombiPAL auto-sampler or with a 7890A GC, a 5975C MSD and an Agilent GC Sampler 80 auto-sampler). The GC parameters are: Agilent DB-5MS column (30 m length, 0.25 mm diameter, 0.25 um film) or equivalent; The GC inlet temperature, 250° C.; Carry gas, helium in constant flow mode (1.2 mL/min); The GC oven temperature program, initial temperature at 70° C. for 1 min, ramping to 200° C. at 15° C./min, and then ramping to 250° C. at 30° C./min. MS data acquisition is done in SIM (selected ion monitoring) mode, monitoring the positive ion at M/Z 176 for the molecular ion of […]. The solvent delay for MS acquisition is set at 4 min. Another method for detection of 2,5-DCA is a head-space GC/MS method. Briefly, reaction mixtures in 500 ul reaction volume are prepared in 1.5 ml 12×32 mm glass vials (Microliter Analytical Supplies, Cat#11-1200) for head space analysis. Glass vials are sealed with magnetic cap from MicroLiter Analytical Supplies, Inc. (catalog number 11-0030AT) using a E-Z Crimper™ 11 mm from Wheaton Industries Inc. The reaction is carried out at room temperature for various amount of time and stopped by heating at 95° C. for 5 min. The reaction vial is transferred to a agitator for incubation at 80° C. for 5 min at 500 rpm. With a syringe preheated at 80° C., 1000 uL of head space is injected with sample fill speed at 100 uL/sec. GC/MS parameters for headspace analysis are the same as for liquid sample analysis.

[3] = Dicamba decarboxylase activity / product analysis with purified His-tag protein (14C assay and product detection of Example 1); type: biochemical; settings: for other products (than 2,5-DCA): purified protein, dicamba substrate; for dicamba decarboxylase activity: statement of the description
Description: To obtain purified protein for activity assays, IPTG-induced cells were harvested by centrifugation at 7,000 rpm for 10 mins Cell pellet from 50 mL of cell culture was frozen and thawed twice and then lysed in 8004 lysis buffer consisting of 50 mM potassium phosphate buffer (pH7.0), 50 μM ZnSO4, 5% EG, 50 mM KCl, 1 mM DTT, 0.2 mg/ml lysozyme, 1/200 protease inhibitor cocktail (EMD set3, EDTA free), and 1/2,000 endonuclease. Lysate was then centrifuged at 13,000 rpm for 45 min at 4° C. Supernatant was loaded onto 200 μL Ni-NTA columns pre-equilibrated with 10 mM His Buffer containing 25 mM potassium phosphate buffer pH7, 50 μM ZnSO4, 5% EG, 200 mM KCl, and 10 mM histidine. The columns were let sit at 4° C. until the entire supernatant passed through. Each column was then washed with 200 ul 10 mM His Buffer twice and then 4 times with 800 ul loading buffer consisting of 25 mM potassium phosphate buffer pH7, 50 μM ZnSO4, 5% EG, 200 mM KCl. Protein was eluted with 1504 of Elution Buffer consisting of 25 mM potassium phosphate buffer pH7, 50 μM ZnSO4, 5% EG, 100 mM KCl, 100 mM histidine, 10% glycerol. The protein concentration was measured by Bradford assay. Purified protein was used for dicamba decarboxylase activity measurement as described in Example 1. Enzyme kinetic characterization of selected dicamba decarboxylases was determined through GC/MS measurement of 2,5-DCP or PEPC coupled assay as described in Example 1.

[4] = LC-MS/MS detection of 4-chloro-3-methoxy phenol; type: biochemical; settings: purified protein, dicamba substrate
Description: The decarboxylated and chloro hydrolyzed product, 4-chloro-3-methoxy phenol (FIG. 1D), is measured using a LC-MS/MS analytical procedure. […] 10 ul is removed from the reaction mixture and mixed with 90 ul pre-chilled methanol followed by centrifugation at 14,000 rpm for 15 min at 4° C. 10 ul of the supernatant is then transferred into 170 ul ddH2O to achieve 5% methanol solution for injection. 50 ul of the prepared sample is injected into a 4000 Q Trap LC-MS/MS system for sample analysis. LC-MS/MS parameters are: Mobile Phase A, 2 mM ammonium acetate in water; Mobile Phase B, 2 mM ammonium acetate in methanol; Column, Aquasil, 100×2.1 mm, 3 μm, C18 column; Flow Rate, 0.6 ml/min. The MS/MS fragment 157/142 which is common to 4-chloro-3-methoxy phenol, 2-chloro-5-methoxy phenol, and 3-chloro-5-methoxy phenol is monitored at a retention time of 2.88 min.

[5] = GC/MS detection of 2,5-DCP; type: biochemical; settings: purified protein, dicamba substrate
Description: The decarboxylated and demethylated product of dicamba, 2,5-dichloro phenol or 2,5-DCP (FIG. 1E) is measured using a GC/MS analytical procedure with either liquid injection after liquid/liquid extraction using toluene as the extraction solvent or gas injection using head space method. The head space sample analysis is carried out on an Agilent GC/MS system with a 6890A GC, a 5973N MSD and a CTC CombiPAL auto-sampler or with a 7890A GC, a 5975C MSD and an Agilent GC Sampler 80 auto-sampler with Phenomenex ZB-MultiResidue-1 column (30 m length, 0.25 mm diameter, 0.25 um film) or equivalent. GC/MS parameters are: GC inlet temperature, 200° C.; Carry gas, helium in constant flow mode (1.2 mL/min); Oven temperature program, 70° C. for 1 min and then ramp to 275° C. at 40° C./min. Protein reactions are carried out in a 1.5 ml 12×32 mm glass vials for head space analysis as described previously. The reaction vial is transferred to a agitator for incubation at 90° C. for 4 min at 500 rpm. With a syringe preheated at 110° C., 1000 uL of head space is injected with sample fill speed at 100 uL/sec. A 2-mm diameter liner is used in sample inlet. The MS data acquisition is done in SIM (selected ion monitoring) mode. The positive ion at M/Z 162 for the molecular ion of 2,-5-DCP is monitored at retention time of 4.06 min. Solvent delay for MS acquisition is set at 3 min. […]

Molecule	Fold Activity [1] [fold]	minor decarboxylation product 2,5-DCA [2]	other products (than 2,5-DCA) [3]	dicamba decarboxylase activity [3]	relative amount of 4-chloro-3-methoxy phenol compared to CO2 formation (100%) [4] [%]	relative amount of 2,5-DCA compared to CO2 formation (100%) [2] [%]	relative amount of 2,5-DCP compared to CO2 formation (100%) [5] [%]
118 (protein, Dicamba decarboxylase variant clone: DC.5.033) MAKKPRIDMHSHFFPRISEQEAAKFDANHAPWLQVSAKGDTGSIMMGKNNFQPVYQALWDPAFRIEEMDAQGVDVQVTCATPVMFGYTWEANKAAQWAERMNDFALEFAAHNPQRIKVLAQVPLQDLDLACKEASRAVAAGHLGIQIGNHLGDKDLDDATLEAFLTHCANEDIPILVHGTDMMGGQRMKKWGLPWLVALAAEVQLAILSLILSGAFERIPKSLKICFSHGGGSFAFLLGLVDEAWRHVDIVREDCPRPPSEYVDRFFVDSVGNPGALELLVSVMGEDRVMLGSDYPHTTGEQKIGGLVLSSNLGESAKDKIISGNASKFFNINV	1.4	detected	not detected	shown herein to have dicamba decarboxylase activity	–	–	–
119 (protein, Dicamba decarboxylase variant clone:DC.5.034) MAKKPRIDMHSHFFPRISEQEAAKFDANHAPWLQVSAKGDTGSIMMGKNNFQPVYQALWDPAFRIEEMDAQGVDVQVTCATPVMFGYTWEANKAAQWAERMNDFALEFAAHNPQRIKVLAQVPLQDLDLACKEASRAVAAGHLGIQIGNHLGDKDLDDATLEAFLTHCANEDIPILVHGWDMMGGQRMKKWGLYWLVAHHAEVQLAILSLILSGAFERIPKSLKICFSHGGGSFAFTLGWVDEAWRHVDIVREDCPRPPSEYVDRFFVDSVGNPGALELLVSVMGEDRVMLGSDYPLTTGEQKIGGLVLSSNLGESAKDKIISGNASKFFNINV	1.6	detected	not detected	shown herein to have dicamba decarboxylase activity	–	–	–
120 (protein, Dicamba decarboxylase variant clone: DC.12.002) MAIIDCHGHYTTTPKGVETYRNAQKAAVAKDPSFKYEKGQVVVSDDEIRESIENNQLKMQRERGTDLTIFSPRSTAGGHHIGNEYTSQFWTEHQNDLIRRVCDLFPKNFAPVAQLPQSPGVDPAKSVPEIVRTVEQMGFIGINLNPDPSGGYWKDTSLADRAFYPIYEKMVEYDIPAMIHPRNACNDCFHTTGSHALGADTTGFQQLIMSDVFKDFPSLKIIIPHGGGAVPYHWGRFRGLMQDQGYAPLEESALKNIYFDTCVYHQRGIDLLLDIVPTQNILFASEMIGAVRGIDAETGHNFDDTKRYIDNNTALNAEEKAMIFEGNARRVFSRLKTD	1.3	detected	not detected	shown herein to have dicamba decarboxylase activity	–	–	–
122 (protein, Dicamba decarboxylase variant clone: DC.12.103) MAIIDCHGHYTTTPKGVEDYRNAQKAAVAKDPSFKGEKGQVVVSDDEIRESIENNQLKMQRERGTDLTIFSPRSTAGGHHIGNEYTSQFWTEHQNDLIRRVCDLFPKNFAPVAQLPQSPGVDPAKSVPEIVRTVEQMGFIGINLNPDPSGGYWKDTSLADRAFYPIYEKMVEYDIPAMIHPRNACNDCFHTTGSHALGADTTGFQQLIMSDVFKDFPSLKIIIPHGGGAVPYHWGRFRGLMQDQGYAPLEESALKNIYFDTCVYHQRGIDLLLDIVPTQNILFASDMIGAVRGIDPETGHNFDDTKRYIDNNTALNAEEKAMIFEGNARRVFSRLKTD	0.9	detected	not detected	shown herein to have dicamba decarboxylase activity	–	–	–
121 (protein, Dicamba decarboxylase variant clone: DC.12.014) MAIIDCHGHYTTTPKGVEDYRNAQKAAVAKDPSFKGEKGQVVVSDDEIRESIENNQLKMQRERGTDLTIFSPRWDAGGHHIGNEYTSQFWTEHQNDLIRRVCDLFPKNFAPVAQLPQSPGVDPAKSVPEIVRTVEQMGFIGINLNPDPSGGYWKDTSLADRAFYPIYEKMVEYDIPAMIHPRLACNACFHTGLSVGLGADTTGFQQLIMSDVFKDFPSLKIIIPHGGGAVPYHWGRFRGLMQDQGYAPLEESALKNIYFDTCVYHQRGIDLLLDIVPTQNILFASEMIGAVRGIDPETGHNFDDTKRYIDNNTALNAEEKAMIFEGNARRVFSRLKTD	1	detected	not detected	shown herein to have dicamba decarboxylase activity	–	–	–
1 (protein, listed as Rhizobium sp.) MAQGKVALEEHFAIPETLQDSAGFVPGDYWKELQHRLLDIQDTRLKLMDAHGIETMILSLNAPAVQAIPDRRKAIEIARRANDVLAEECAKRPDRFLAFAALPLQDPDAATEELQRCVNDLGFVGALVNGFSQEGDGQTPLYYDLPQYRPFWGEVEKLDVPFYLHPRNPLPQDSRIYDGHPWLLGPTWAFAQETAVHALRLMASGLFDEHPRLNIILGHMGEGLPYMMWRIDHRNAWVKLPPRYPAKRRFMDYFNENFHITTSGNFRTQTLIDAILEIGADRILFSTDWPFENIDHASDWFNATSIAEADRVKIGRTNARRLFKLDGA	1.2	–	–	native dicamba decarboxylase activity	< 10	< 1	> 80
